Target: T1, Full-length His-PCAF fusion protein (UniProt Q92831 1-832)
T1 construct: PCAF, full length, cDNA cloned into pET-28a; source: E. coli, purified
Assay: pull-down; GST or GST-SIRT7 on glutathione-Sepharose 4B beads incubated with 6xHis-tagged PCAF from E. coli at 4 C overnight; washed with TEN buffer (0.5% NP-40, 20 mM Tris pH 7.4, 0.1 mM EDTA, 300 mM NaCl); immunoblot
Conditions: both partners purified

T1 sequence (Q92831 whole entry, the tested form may be a part): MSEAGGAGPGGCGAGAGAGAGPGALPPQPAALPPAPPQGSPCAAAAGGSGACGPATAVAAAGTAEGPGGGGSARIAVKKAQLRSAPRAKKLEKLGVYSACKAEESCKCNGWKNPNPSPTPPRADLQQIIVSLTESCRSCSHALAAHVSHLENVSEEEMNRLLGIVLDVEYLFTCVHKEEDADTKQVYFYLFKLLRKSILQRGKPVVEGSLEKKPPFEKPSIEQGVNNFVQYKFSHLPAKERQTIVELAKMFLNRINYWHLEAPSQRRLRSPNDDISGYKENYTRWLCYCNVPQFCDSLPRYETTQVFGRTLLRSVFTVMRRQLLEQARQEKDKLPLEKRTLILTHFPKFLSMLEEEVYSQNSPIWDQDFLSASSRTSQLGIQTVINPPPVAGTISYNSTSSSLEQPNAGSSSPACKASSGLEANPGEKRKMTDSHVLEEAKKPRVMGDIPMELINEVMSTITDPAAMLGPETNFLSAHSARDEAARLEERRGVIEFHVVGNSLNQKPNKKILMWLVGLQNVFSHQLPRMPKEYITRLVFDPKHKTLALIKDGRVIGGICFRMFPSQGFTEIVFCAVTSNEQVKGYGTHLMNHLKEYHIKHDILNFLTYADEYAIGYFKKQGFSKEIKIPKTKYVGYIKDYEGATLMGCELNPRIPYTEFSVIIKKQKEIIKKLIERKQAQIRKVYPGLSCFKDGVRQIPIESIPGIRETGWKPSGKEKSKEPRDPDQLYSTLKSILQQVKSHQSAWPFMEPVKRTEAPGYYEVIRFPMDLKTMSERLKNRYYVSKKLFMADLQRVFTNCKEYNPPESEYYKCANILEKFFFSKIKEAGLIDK

B1: full-length GST-tagged SIRT7 (natural protein, UniProt Q9NRC8 1-400, looked up)
chain: MAAGGLSRSERKAAERVRRLREEQQRERLRQVSRILRKAAAERSAEEGRLLAESADLVTELQGRSRRREGLKRRQEEVCDDPEELRGKVRELASAVRNAKYLVVYTGAGISTAASIPDYRGPNGVWTLLQKGRSVSAADLSEAEPTLTHMSITRLHEQKLVQHVVSQNCDGLHLRSGLPRTAISELHGNMYIEVCTSCVPNREYVRVFDVTERTALHRHQTGRTCHKCGTQLRDTIVHFGERGTLGQPLNWEAATEAASRADTILCLGSSLKVLKKYPRLWCMTKPPSRRPKLYIVNLQWTPKDDWAALKLHGKCDDVMRLLMAELGLEIPAYSRWQDPIFSLATPLRAGEEGSHSRKSLCRSREEAPPGDRGAPLSSAPILGGWFGRGCTKRTKRKKVT
notes: SIRT7, full length, cDNA cloned into pGEX-4T1; also called GST-SIRT7; full-length (FL) SIRT7; source: E. coli, purified on glutathione-Sepharose 4B beads
binding result: binds

From article PMC7286819, “SIRT7 activates p53 by enhancing PCAF-mediated MDM2 degradation to arrest the cell cycle” (Oncogene, 2020)
